Here are results for 13 molecules from paper PMC8298264, “Function of cofactor Akirin2 in the regulation of gene expression in model human neutrophil-like HL60 cells” (Bioscience Reports, 2021).

The chains are these.
B1: sp¦P51159¦RB27A_HUMAN (protein, UniProt P51159 2-221, looked up)
Ras-related protein Rab-27A: SDGDYDYLIKFLALGDSGVGKTSVLYQYTDGKFNSKFITTVGIDFREKRVVYRASGPDGATGRGQRIHLQLWDTAGQERFRSLTTAFFRDAMGFLLLFDLTNEQSFLNVRNWISQLQMHAYCENPDIVLCGNKSDLEDQRVVKEEEAIALAEKYGIPYFETSAANGTNISQAIEMLLDLIMKRMERCVDKSWIPEGVVRSNGHASTDQLSEEKEKGACGC
B2: sp¦P27105¦STOM_HUMAN (protein, UniProt P27105 1-288, looked up)
Stomatin: MAEKRHTRDSEAQRLPDSFKDSPSKGLGPCGWILVAFSFLFTVITFPISIWMCIKIIKEYERAIIFRLGRILQGGAKGPGLFFILPCTDSFIKVDMRTISFDIPPQEILTKDSVTISVDGVVYYRVQNATLAVANITNADSATRLLAQTTLRNVLGTKNLSQILSDREEIAHNMQSTLDDATDAWGIKVERVEIKDVKLPVQLQRAMAAEAEASREARAKVIAAEGEMNASRALKEASMVITESPAALQLRYLQTLTTIAAEKNSTIVFPLPIDMLQGIIGAKHSHLG
B3: sp¦O60488¦ACSL4_HUMAN (protein, UniProt O60488 1-711, looked up)
Long-chain-fatty-acid--CoA …: MKLKLNVLTIILLPVHLLITIYSALIFIPWYFLTNAKKKNAMAKRIKAKPTSDKPGSPYRSVTHFDSLAVIDIPGADTLDKLFDHAVSKFGKKDSLGTREILSEENEMQPNGKVFKKLILGNYKWMNYLEVNRRVNNFGSGLTALGLKPKNTIAIFCETRAEWMIAAQTCFKYNFPLVTLYATLGKEAVVHGLNESEASYLITSVELLESKLKTALLDISCVKHIIYVDNKAINKAEYPEGFEIHSMQSVEELGSNPENLGIPPSRPTPSDMAIVMYTSGSTGRPKGVMMHHSNLIAGMTGQCERIPGLGPKDTYIGYLPLAHVLELTAEISCFTYGCRIGYSSPLTLSDQSSKIKKGSKGDCTVLKPTLMAAVPEIMDRIYKNVMSKVQEMNYIQKTLFKIGYDYKLEQIKKGYDAPLCNLLLFKKVKALLGGNVRMMLSGGAPLSPQTHRFMNVCFCCPIGQGYGLTESCGAGTVTEVTDYTTGRVGAPLICCEIKLKDWQEGGYTINDKPNPRGEIVIGGQNISMGYFKNEEKTAEDYSVDENGQRWFCTGDIGEFHPDGCLQIIDRKKDLVKLQAGEYVSLGKVEAALKNCPLIDNICAFAKSDQSYVISFVVPNQKRLTLLAQQKGVEGTWVDICNNPAMEAEILKEIREAANAMKLERFEIPIKVRLSPEPWTPETGLVTDAFKLKRKELRNHYLKDIERMYGGK
B4: sp¦P16615¦AT2A2_HUMAN (protein, UniProt P16615 1-1042, looked up)
Sarcoplasmic/endoplasmic …: MENAHTKTVEEVLGHFGVNESTGLSLEQVKKLKERWGSNELPAEEGKTLLELVIEQFEDLLVRILLLAACISFVLAWFEEGEETITAFVEPFVILLILVANAIVGVWQERNAENAIEALKEYEPEMGKVYRQDRKSVQRIKAKDIVPGDIVEIAVGDKVPADIRLTSIKSTTLRVDQSILTGESVSVIKHTDPVPDPRAVNQDKKNMLFSGTNIAAGKAMGVVVATGVNTEIGKIRDEMVATEQERTPLQQKLDEFGEQLSKVISLICIAVWIINIGHFNDPVHGGSWIRGAIYYFKIAVALAVAAIPEGLPAVITTCLALGTRRMAKKNAIVRSLPSVETLGCTSVICSDKTGTLTTNQMSVCRMFILDRVEGDTCSLNEFTITGSTYAPIGEVHKDDKPVNCHQYDGLVELATICALCNDSALDYNEAKGVYEKVGEATETALTCLVEKMNVFDTELKGLSKIERANACNSVIKQLMKKEFTLEFSRDRKSMSVYCTPNKPSRTSMSKMFVKGAPEGVIDRCTHIRVGSTKVPMTSGVKQKIMSVIREWGSGSDTLRCLALATHDNPLRREEMHLEDSANFIKYETNLTFVGCVGMLDPPRIEVASSVKLCRQAGIRVIMITGDNKGTAVAICRRIGIFGQDEDVTSKAFTGREFDELNPSAQRDACLNARCFARVEPSHKSKIVEFLQSFDEITAMTGDGVNDAPALKKAEIGIAMGSGTAVAKTASEMVLADDNFSTIVAAVEEGRAIYNNMKQFIRYLISSNVGEVVCIFLTAALGFPEALIPVQLLWVNLVTDGLPATALGFNPPDLDIMNKPPRNPKEPLISGWLFFRYLAIGCYVGAATVGAAAWWFIAADGGPRVSFYQLSHFLQCKEDNPDFEGVDCAIFESPYPMTMALSVLVTIEMCNALNSLSENQSLLRMPPWENIWLVGSICLSMSLHFLILYVEPLPLIFQITPLNVTQWLMVLKISLPVILMDETLKFVARNYLEPGKECVQPATKSCSFSACTDGISWPFVLLIMPLVIWVYSTDTNFSDMFWS
B5: sp¦P51148¦RAB5C_HUMAN (protein, UniProt P51148 1-216, looked up)
Ras-related protein Rab-5C: MAGRGGAARPNGPAAGNKICQFKLVLLGESAVGKSSLVLRFVKGQFHEYQESTIGAAFLTQTVCLDDTTVKFEIWDTAGQERYHSLAPMYYRGAQAAIVVYDITNTDTFARAKNWVKELQRQASPNIVIALAGNKADLASKRAVEFQEAQAYADDNSLLFMETSAKTAMNVNEIFMAIAKKLPKNEPQNATGAPGRNRGVDLQENNPASRSQCCSN
B6: sp¦Q9NVJ2¦ARL8B_HUMAN (protein, UniProt Q9NVJ2 1-186, looked up)
ADP-ribosylation factor-like …: MLALISRLLDWFRSLFWKEEMELTLVGLQYSGKTTFVNVIASGQFSEDMIPTVGFNMRKVTKGNVTIKIWDIGGQPRFRSMWERYCRGVNAIVYMIDAADREKIEASRNELHNLLDKPQLQGIPVLVLGNKRDLPNALDEKQLIEKMNLSAIQDREICCYSISCKEKDNIDITLQWLIQHSKSRRS
B7: sp¦P21964¦COMT_HUMAN (protein, UniProt P21964 1-271, looked up)
Catechol O-methyltransferase: MPEAPPLLLAAVLLGLVLLVVLLLLLRHWGWGLCLIGWNEFILQPIHNLLMGDTKEQRILNHVLQHAEPGNAQSVLEAIDTYCEQKEWAMNVGDKKGKIVDAVIQEHQPSVLLELGAYCGYSAVRMARLLSPGARLITIEINPDCAAITQRMVDFAGVKDKVTLVVGASQDIIPQLKKKYDVDTLDMVFLDHWKDRYLPDTLLLEECGLLRKGTVLLADNVICPGAPDFLAHVRGSSCFECTHYQSFLEYREVVDGLEKAIYKGPGSEAGP
B8: sp¦Q9BVC6¦TM109_HUMAN (protein, UniProt Q9BVC6 34-243, looked up)
Voltage-gated monoatomic …: QSRRDFAPPGQQKREAPVDVLTQIGRSVRGTLDAWIGPETMHLVSESSSQVLWAISSAISVAFFALSGIAAQLLNALGLAGDYLAQGLKLSPGQVQTFLLWGAGALVVYWLLSLLLGLVLALLGRILWGLKLVIFLAGFVALMRSVPDPSTRALLLLALLILYALLSRLTGSRASGAQLEAKVRGLERQVEELRWRQRRAAKGARSVEEE
B9: sp¦Q9H939¦PPIP2_HUMAN (protein, UniProt Q9H939 1-334, looked up)
Proline-serine-threonine …: MTRSLFKGNFWSADILSTIGYDNIIQHLNNGRKNCKEFEDFLKERAAIEERYGKDLLNLSRKKPCGQSEINTLKRALEVFKQQVDNVAQCHIQLAQSLREEARKMEEFREKQKLQRKKTELIMDAIHKQKSLQFKKTMDAKKNYEQKCRDKDEAEQAVSRSANLVNPKQQEKLFVKLATSKTAVEDSDKAYMLHIGTLDKVREEWQSEHIKACEAFEAQECERINFFRNALWLHVNQLSQQCVTSDEMYEQVRKSLEMCSIQRDIEYFVNQRKTGQIPPAPIMYENFYSSQKNAVPAGKATGPNLARRGPLPIPKSSPDDPNYSLVDDYSLLYQ
B10: sp¦Q9H9B4¦SFXN1_HUMAN (protein, UniProt Q9H9B4 2-322, looked up)
Sideroflexin-1: SGELPPNINIKEPRWDQSTFIGRANHFFTVTDPRNILLTNEQLESARKIVHDYRQGIVPPGLTENELWRAKYIYDSAFHPDTGEKMILIGRMSAQVPMNMTITGCMMTFYRTTPAVLFWQWINQSFNAVVNYTNRSGDAPLTVNELGTAYVSATTGAVATALGLNALTKHVSPLIGRFVPFAAVAAANCINIPLMRQRELKVGIPVTDENGNRLGESANAAKQAITQVVVSRILMAAPGMAIPPFIMNTLEKKAFLKRFPWMSAPIQVGLVGFCLVFATPLCCALFPQKSSMSVTSLEAELQAKIQESHPELRRVYFNKGL
B11: sp¦Q15645¦PCH2_HUMAN (protein, UniProt Q15645 1-432, looked up)
Pachytene checkpoint protein …: MDEAVGDLKQALPCVAESPTVHVEVHQRGSSTAKKEDINLSVRKLLNRHNIVFGDYTWTEFDEPFLTRNVQSVSIIDTELKVKDSQPIDLSACTVALHIFQLNEDGPSSENLEEETENIIAANHWVLPAAEFHGLWDSLVYDVEVKSHLLDYVMTTLLFSDKNVNSNLITWNRVVLLHGPPGTGKTSLCKALAQKLTIRLSSRYRYGQLIEINSHSLFSKWFSESGKLVTKMFQKIQDLIDDKDALVFVLIDEVESLTAARNACRAGTEPSDAIRVVNAVLTQIDQIKRHSNVVILTTSNITEKIDVAFVDRADIKQYIGPPSAAAIFKIYLSCLEELMKCQIIYPRQQLLTLRELEMIGFIENNVSKLSLLLNDISRKSEGLSGRVLRKLPFLAHALYVQAPTVTIEGFLQALSLAVDKQFEERKKLAAYI
B12: sp¦P61019¦RAB2A_HUMAN (protein, UniProt P61019 2-212, looked up)
Ras-related protein Rab-2A: AYAYLFKYIIIGDTGVGKSCLLLQFTDKRFQPVHDLTIGVEFGARMITIDGKQIKLQIWDTAGQESFRSITRSYYRGAAGALLVYDITRRDTFNHLTTWLEDARQHSNSNMVIMLIGNKSDLESRREVKKEEGEAFAREHGLIFMETSAKTASNVEEAFINTAKEIYEKIQEGVFDINNEANGIKIGPQHAATNATHAGNQGGQQAGGGCC
B13: sp¦Q9Y3A6¦TMED5_HUMAN (protein, UniProt Q9Y3A6 28-229, looked up)
Transmembrane emp24 …: FTPSLDSDFTFTLPAGQKECFYQPMPLKASLEIEYQVLDGAGLDIDFHLASPEGKTLVFEQRKSDGVHTVETEVGDYMFCFDNTFSTISEKVIFFELILDNMGEQAQEQEDWKKYITGTDILDMKLEDILESINSIKSRLSKSGHIQTLLRAFEARDRNIQESNFDRVNFWSMVNLVVMVVVSAIQVYMLKSLFEDKRKSRT

The test system of one assay is human HL60 cells. Description: SWATH-MS proteomics, differential protein representation, akirin2 KO vs WT HL60 cells. The format is cell-based. As to conditions: KO vs WT HL60 cells; sheet "Under-represented in KO". Summed up:
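Differential representation compares akirin2 KO with WT HL60 across three biological replicates, 5 µg digest each, acquired by data-independent SWATH on a 120-min gradient. Library built from combined IDA runs searched with Paragon; proteins accepted at 1% FDR, with total-area-sum normalization.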
For the molecule B1, the “Fold Change” value is listed as 0.5507 and the “Log (Fold Change)” value is -0.2591.

B2: the “Fold Change” value is listed as 0.5492 and the “Log (Fold Change)” value was -0.2603.

Turning to B3, the “Fold Change” value is recorded as 0.5384 and the “Log (Fold Change)” value was -0.2689.

As to B4, the “Fold Change” value amounted to 0.5392 and the “Log (Fold Change)” value is -0.2682.

Consider B5, for which the “Fold Change” value is 0.5435 and the “Log (Fold Change)” value is reported as -0.2648.

For the molecule B6, the “Fold Change” value came out at 0.5417 and the “Log (Fold Change)” value is reported as -0.2663.

The same assay, now with this note: KO vs WT; akirin2 KO vs WT HL60 cells; sheet "Under-represented in KO".
With B7, the “Fold Change” value is recorded as 0.567 and the “Log (Fold Change)” value is reported as -0.2464.

In the case of B8, the “Fold Change” value is recorded as 0.5517 and the “Log (Fold Change)” value is -0.2583.

B9: the “Fold Change” value worked out at 0.5689 and the “Log (Fold Change)” value is recorded as -0.2449.

Turning to B10, the “Fold Change” value is recorded as 0.5707 and the “Log (Fold Change)” value was -0.2436.

Regarding B11, the “Fold Change” value was found to be 0.5524 and the “Log (Fold Change)” value is on record as -0.2577.

Take B12: the “Fold Change” value is on record as 0.5636 and the “Log (Fold Change)” value is recorded as -0.249.

Staying with this assay, now noted: akirin2 KO vs WT HL60 cells; sheet "Under-represented in KO".
As for B13, the “Fold Change” value worked out at 0.2554 and the “Log (Fold Change)” value was -0.5928.
